Tests used:
[1] = molecular target: N-Flag-human Mcl-1 C16A, C286A, Δ328-361, with a carboxyl-terminal hexa-His tag and a terminal Cys (human) (UniProt Q07820)
[2] = molecular target: the molecule itself; assay: cross-linking; Bak conjugated onto liposomes (2 mol% Mal-PEG3-PE, 1 mol% DOGS-NTA-Ni, 2 mg lipid/ml), 100 mM KCl, 10 mM Hepes pH 7.0, 1 h at room temperature with Bim BH3 peptide (…-OH); proteoliposomes recovered by centrifugation; 0.5 mM BS3, 1 h at room temperature; SDS-PAGE and anti-Bak immunoblot

Sequence of N-Flag-human Mcl-1 C16A, C286A, Δ328-361, with a carboxyl-terminal hexa-His tag and a terminal Cys (human) (Q07820 1-327 C16A/C286A): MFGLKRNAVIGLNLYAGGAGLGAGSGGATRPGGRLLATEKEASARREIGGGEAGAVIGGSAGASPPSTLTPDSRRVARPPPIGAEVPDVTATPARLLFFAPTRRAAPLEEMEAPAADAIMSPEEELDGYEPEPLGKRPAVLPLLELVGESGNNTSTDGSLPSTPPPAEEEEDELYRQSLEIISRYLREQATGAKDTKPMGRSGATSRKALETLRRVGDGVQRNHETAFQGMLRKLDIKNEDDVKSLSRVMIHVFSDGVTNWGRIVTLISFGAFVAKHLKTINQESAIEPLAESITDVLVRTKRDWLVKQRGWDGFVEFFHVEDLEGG

Noxa BH3 peptide
tBid-induced (40 nM), Bak-dependent calcein release from proteoliposomes: molar excess of Noxa BH3 peptide relative to Mcl-1 that overcame the inhibition by Mcl-1 (molar excess relative to Mcl-1) [1]: 2.5

B1: N-Flag-human Bak C14A, C166A, ΔC186-211, with a carboxyl-terminal hexa-His tag and a terminal Cys (domain or fragment, UniProt Q16611 1-185, looked up)
chain: MASGQGPGPPRQEAGEPALPSASEEQVAQDTEEVFRSYVFYRHQQEQEAEGVAAPADPEMVTLPLQPSSTMGQVGRQLAIIGDDINRRYDSEFQTMLQHLQPTAENAYEYFTKIATSLFESGINWGRVVALLGFGYRLALHVYQHGLTGFLGQVTRFVVDFMLHHAIARWIAQRGGWVAALNLGN
modifications: terminal Cys linked covalently to the liposome lipid Mal-PEG3-PE (where that lipid was included)
notes: Bak, human; the C-terminal TM segment (ΔC186-211) replaced by 6 His residues and a unique terminal Cys; The pET151 vector may add further N-terminal residues; also called BakΔC*; surface anchored Bak; source: E. coli BL21Star (pET151 vector), purified from the soluble extract on Ni2+-NTA resin; not shown: His6 followed by a terminal Cys, C-terminal, kept
binding result [2]: binds
